What was measured:
Experiment in all cases: cellular competition assay vs FL-labelled reference peptide on B cells; affinity category (high/good IC50<5 uM, intermediate 5-15 uM, low >15-50 uM)
[1] = target: T1, HLA-A*0301 (human)
T1 construct: whole, on cells; Class I molecule on intact B cells (EKR); also called A3

[2] = target: T2, HLA-A*1101 (human)
T2 construct: whole, on cells; Class I molecule on intact B cells (BVR)

[3] = target: T3, HLA-A*0101 (human)
T3 construct: whole, on cells; also called A1

Binder	IC50 [1] [µM]	IC50 [2] [µM]	IC50 [3] [µM]
RVRAMAIY (also called A3 (156-163)) [p53 156-163 RVRAMAIY]	5 to 15	–	–
GTAKSVTCTY (also called A1 (117-126); A3 (117-126)) [p53 117-126 GTAKSVTCTY]	5 to 15	–	5 to 15
YLDDRNTFRH (also called A1 (205-214)) [p53 205-214 YLDDRNTFRH]	–	–	5 to 15

Other lines, results leading:

IC50 [1] [µM]	IC50 [2] [µM]	IC50 [3] [µM]	Binder
–	5 to 15	–	GQSTSRHKK (also called A11 (374-382)) [p53 374-382 GQSTSRHKK]
5 to 15	–	–	GGSRAHSSHLK (also called A3 (360-370)) [p53 360-370 GGSRAHSSHLK]
–	–	5 to 15	CTTIHYNY (also called A1 (229-236)) [p53 229-236 CTTIHYNY]

From patent publication US20150010586A1 (ACADEMISCH ZIEKENHUIS LEIDEN H O D N LUMC, published 2015)
